Data on one molecule can be found in US20130171236A1, “Prevention and Treatment of Ischemia-Reperfusion Injury and Related Conditions” (MEDICAL UNIVERSITY OF SOUTH CAROLINA, priority 2006, published 2013).

Assay [1] relates to C57B1/6 mice. Kind of assay: Intestinal ischemia-reperfusion injury model in immune competent mice. The format is in vivo. The conditions noted are these: injected right before the reperfusion phase, FIG. 9. How it is done: To address this issue, the inventors created compounds that could block the effects of the monoclonal antibodies. This concept was first tested with the antibodies recognizing phospholipids, and liposomes were created composed of cholesterol and the phospholipids phosphatidylcholine and phosphoglycerol.
Wild type C57BL/6 are utilized for these studies. The ischemia-reperfusion model is performed as outlined briefly. Anesthesia is induced with ketamine (16 mg/kg) and xylazine (8 mg/kg) administered by intramuscular injection. All procedures are performed with the animals breathing spontaneously and body temperature maintained at 37° C. using a water-circulating heating pad. To induce ischemia-reperfusion injury, a midline laparotomy is performed prior to a 30 minute equilibration period. […] After this ischemic phase, the clamp is removed under direct visualization and the intestine allowed to perfuse for 2 hours. […] The laparotomy incisions are then sutured and the animals monitored during the reperfusion period. […]
For histology and immunohistochemistry, immediately after euthansia segments of small intestine specimens are fixed in 10% buffered formalin. […] In addition, the villus height of at least 10 villi from the same section is measured using an ocular micrometer. […]

Assay [2] deals with C57B1/6 mice. The assay is described as follows: MCAO ischemic stroke and reperfusion in C57B1/6 mice, treatment. The format is in vivo. The conditions noted are these: 100 μg i.v. at 30 min post reperfusion. The protocol:
Eight week old male C57B1/6 and C57B1/6 C3 deficient mice (Jackson labs, Bar Harbor, Me.) were used in experiments. Mice were anesthetized with chloral hydrate (350 mg/kg) and xylazine (4 mg/kg) i.p., and the left common carotid artery of each mouse was exposed through a mid-line incision in the neck. […] The distal end of the ECA was ligated with 6-0 silk and transected, and 6-0 silk was tied loosely around the ECA stump. The clip was then removed, and the blunted tip of a 4-0 nylon suture was inserted into the ECA stump. The loop of the 6-0 silk was tightened around the stump, and the nylon suture advanced into and through the internal carotid artery until it rested in the anterior cerebral artery. After the nylon suture had been placed for 60 minutes, it was pulled back into the ECA, and the incision closed. […]
Infarct volume was measured by TTC staining and volume calculated using image analysis.
Animals were monitored for 24 hours post reperfusion and clinical assessed for neurological deficit. Behavioral/neurological deficit was scored as follows: 0, normal motor function; 1, flexion of torso and contralateral forelimb when animal is lifted by the tail; 2, circling to the contralateral side when held by tail on flat surface, but normal posture at rest; 3, leaning to the contralateral side at rest; 4, no spontaneous motor activity. […]

B1: annexin IV: recombinant annexin IV, a phospholipid binding protein, prepared as in Example 2 (protein, listed as Homo sapiens)
chain: MATKGGTVKAASGFNAMEDAQTLRKAMKGLGTDEDAIISVLAYRNTAQRQEIRTAYKSTIGRDLIDDLKSELSGNFEQVIVGMMTPTVLYDVQELRRAMKGAGTDEGCLIEILASRTPEEIRRISQTYQQQYGRSLEDDIRSDTSFMFQRVLVSLSAGGRDEGNYLDDALVRQDAQDLYEAGEKKWGTDEVKFLTVLCSRNRNHLLHVFDEYKRISQKDIEQSIKSETSGSFEDALLAIVKCMRNKSAYFAEKLYKSMKGLGTDDNTLIRVMVSRAEIDMLDIRAHFKRLYGKSLYSFIKGDTSGDYRKVLLVLCGGDD
Regarding B1, the intestinal ischemia-reperfusion injury entry is listed as “nearly completely protected mice from ischemia-reperfusion injury” in assay [1] and “reduces the level of intestinal ischemia reperfusion injury” in assay [1] (listed as recombinant annexin IV). In addition, the neurological deficit entry in assay [2] (24 hours, FIG. 8) was “significant reduction in neurological deficit”. Further, in assay [2] (FIG. 7), the “cerebral infarct volume (TTC)” value is “significantly protects against cerebral infarct”.
